Patent US20080152653A1

Target: mouse α4 integrin (mouse) (UniProt Q00651)
Experiment: cell-based or functional assay

Sequence of UniProt Q00651 (Q00651 41-1039, form in doubt, chain 1 of 2): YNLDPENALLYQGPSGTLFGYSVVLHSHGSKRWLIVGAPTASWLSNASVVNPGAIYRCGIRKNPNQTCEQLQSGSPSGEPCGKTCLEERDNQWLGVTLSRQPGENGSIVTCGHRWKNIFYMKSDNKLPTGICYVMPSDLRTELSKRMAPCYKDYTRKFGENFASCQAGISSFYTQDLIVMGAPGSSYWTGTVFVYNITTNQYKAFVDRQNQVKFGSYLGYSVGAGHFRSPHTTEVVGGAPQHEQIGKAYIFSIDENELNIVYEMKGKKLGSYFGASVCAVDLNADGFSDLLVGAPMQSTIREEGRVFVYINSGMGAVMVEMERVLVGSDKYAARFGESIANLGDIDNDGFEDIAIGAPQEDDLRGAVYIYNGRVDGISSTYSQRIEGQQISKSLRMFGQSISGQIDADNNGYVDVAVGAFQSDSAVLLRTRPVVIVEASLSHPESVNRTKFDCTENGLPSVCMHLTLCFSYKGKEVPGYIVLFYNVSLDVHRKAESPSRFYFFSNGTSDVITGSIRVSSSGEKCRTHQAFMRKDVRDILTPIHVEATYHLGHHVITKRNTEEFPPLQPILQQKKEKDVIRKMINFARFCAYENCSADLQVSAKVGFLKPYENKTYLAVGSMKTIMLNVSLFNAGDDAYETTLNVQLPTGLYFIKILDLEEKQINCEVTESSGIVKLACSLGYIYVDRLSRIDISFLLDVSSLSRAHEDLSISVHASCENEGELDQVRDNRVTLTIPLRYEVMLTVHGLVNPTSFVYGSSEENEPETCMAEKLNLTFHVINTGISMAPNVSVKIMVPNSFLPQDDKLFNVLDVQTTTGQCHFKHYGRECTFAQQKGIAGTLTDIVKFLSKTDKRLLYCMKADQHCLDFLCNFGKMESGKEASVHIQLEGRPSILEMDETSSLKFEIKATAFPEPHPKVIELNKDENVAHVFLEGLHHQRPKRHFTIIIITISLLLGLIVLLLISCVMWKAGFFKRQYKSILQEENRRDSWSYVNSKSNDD
Sequence of UniProt Q00651 (chain, as listed by the source, form in doubt, chain 2 of 2): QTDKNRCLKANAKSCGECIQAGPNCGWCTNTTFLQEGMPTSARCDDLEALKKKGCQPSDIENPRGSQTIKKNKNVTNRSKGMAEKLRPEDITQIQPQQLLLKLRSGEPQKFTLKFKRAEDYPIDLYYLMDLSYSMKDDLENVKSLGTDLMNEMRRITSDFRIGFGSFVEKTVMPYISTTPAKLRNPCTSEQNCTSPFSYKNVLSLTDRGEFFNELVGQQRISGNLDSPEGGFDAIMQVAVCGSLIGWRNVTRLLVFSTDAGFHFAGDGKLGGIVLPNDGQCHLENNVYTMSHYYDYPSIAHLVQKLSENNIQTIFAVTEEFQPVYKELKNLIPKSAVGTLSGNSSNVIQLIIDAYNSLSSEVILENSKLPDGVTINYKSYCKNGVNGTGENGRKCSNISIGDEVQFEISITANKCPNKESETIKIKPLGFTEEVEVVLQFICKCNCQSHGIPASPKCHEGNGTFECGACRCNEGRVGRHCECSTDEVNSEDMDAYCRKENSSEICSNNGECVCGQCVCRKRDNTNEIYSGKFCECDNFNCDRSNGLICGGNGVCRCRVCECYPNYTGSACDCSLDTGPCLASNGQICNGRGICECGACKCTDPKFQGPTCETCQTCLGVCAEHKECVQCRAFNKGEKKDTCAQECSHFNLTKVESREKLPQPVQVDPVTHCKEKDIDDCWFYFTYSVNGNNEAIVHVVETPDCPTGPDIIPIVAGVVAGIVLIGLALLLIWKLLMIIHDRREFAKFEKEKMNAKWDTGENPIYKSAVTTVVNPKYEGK

inhibition of growth of B16-BL6 cells (Cell Counting Kit 8, O.D. 450), 10 µg/ml antibody: 20%
Substance: anti-α4 integrin antibody (clone R1-2) (Pharmingen)
